Laboratory results taken from patent publication US20090325168.

Tests used:
DER-NorFES-KGY-DER = system: T1, DER-NorFES-KGY-DER
T1 sequence: DAIPXSIPKGY

[1] = system: T2, Fl-NorFES-KGY-Fl (fluorescein-NorFES-fluorescein)
T2 sequence: DAIPXSIPKGY

6-TMR-NorFES-KGY-DER = system: T3, 6-TMR-NorFES-KGY-DER
T3 sequence: DAIPXSIPKGY

6-TMR-K-NorFES-KGY-6-TMR = system: T4, 6-TMR-K-NorFES-KGY-6-TMR
T4 sequence: KDAIPXSIPKGY

6-TMR-K-NorFES-KGY-DER = system: T5, 6-TMR-K-NorFES-KGY-DER
T5 sequence: KDAIPXSIPKGY

6-TMR-NorFES-KGY-6-TMR = system: T6, 6-TMR-NorFES-KGY-6-TMR
T6 sequence: DAIPXSIPKGY

## elastase
DER-NorFES-KGY-DER
  T1/2 (cleavage rate): 2.53 min
[1]
  T1/2 (cleavage rate): 0.3 min
6-TMR-NorFES-KGY-DER
  T1/2 (cleavage rate): 1.33 min
6-TMR-K-NorFES-KGY-6-TMR
  T1/2 (cleavage rate): 1.4 min
6-TMR-K-NorFES-KGY-DER
  T1/2 (cleavage rate): 2.08 min
6-TMR-NorFES-KGY-6-TMR
  T1/2 (cleavage rate): 0.733 min
